The results in this text go back to article PMC6629373, “Cryo-EM structure of the rhodopsin-Gαi-βγ complex reveals binding of the rhodopsin C-terminal tail to the gβ subunit” (eLife, 2019).

This test deals with T1, human Gαi subunit (Gαi1) with N-terminal deca-histidine tag (human, UniProt P63096 1-354).
T1 construct: Gαi1 subunit, human; TEV protease-cleavable tag; source: E. coli BL21 (DE3), purified; not shown: His10, N-terminal, kept
The test is described as follows: cryo-EM structure; rhodopsin-Gi-Fab16 complex; rhodopsin on 1D4 resin mixed with 10xHis-tagged Gi, light-activated, with apyrase, in LMNG; Ni-NTA; Fab16 added in molar excess (1:1.4); SEC in 20 mM HEPES pH 7.5, 150 mM NaCl; Titan Krios, K2; nominal resolution 4.38 Å. The note with it: both partners purified.

B1: bovine rhodopsin N2C/M257Y/D282C (stabilized, constitutively active mutant) (receptor, UniProt P02699 1-348, looked up)
chain: MCGTEGPNFYVPFSNKTGVVRSPFEAPQYYLAEPWQFSMLAAYMFLLIMLGFPINFLTLYVTVQHKKLRTPLNYILLNLAVADLFMVFGGFTTTLYTSLHGYFVFGPTGCNLEGFFATLGGEIALWSLVVLAIERYVVVCKPMSNFRFGENHAIMGVAFTWVMALACAAPPLVGWSRYIPEGMQCSCGIDYYTPHEETNNESFVIYMFVVHFIIPLIVIFFCYGQLVFTVKEAAAQQQESATTQKAEKEVTRMVIIYVIAFLICWLPYAGVAFYIFTHQGSCFGPIFMTIPAFFAKTSAVYNPVIYIMMNKQFRNCMVTTLCCGKNPLGDDEASTTVSKTETSQVAPA
modifications: palmitoylation of Cys residues at positions 322 and 323; reconstituted with 9-cis or 11-cis retinal and light-activated
notes: rhodopsin, bovine, mutant N2C/M257Y/D282C; Residues 324-335 of the C-tail were modelled in the map; also called the receptor
As for B1, the binding result is “binds”.
